In patent WO2011104307A2:

Molecular target: host cell proteins
Experiment: microtiter plate column chromatography, Bradford assay; fraction of injected protein bound

For “rProtein A Sepharose FF (from UniProt P38507 37-327)”, the Bound was 0%.
